Where two headings read alike, the source gives them in different places. Each block holds one binder with its values, some of them ahead of it.
How the values were obtained:
[1] = biological target: T1, human LAG3 (form used in Octet, Biacore and HDX-MS not given) (human, UniProt P18627 23-450, limits assumed); test: BLI (Octet), 1:1 fit
T1 sequence (looked up): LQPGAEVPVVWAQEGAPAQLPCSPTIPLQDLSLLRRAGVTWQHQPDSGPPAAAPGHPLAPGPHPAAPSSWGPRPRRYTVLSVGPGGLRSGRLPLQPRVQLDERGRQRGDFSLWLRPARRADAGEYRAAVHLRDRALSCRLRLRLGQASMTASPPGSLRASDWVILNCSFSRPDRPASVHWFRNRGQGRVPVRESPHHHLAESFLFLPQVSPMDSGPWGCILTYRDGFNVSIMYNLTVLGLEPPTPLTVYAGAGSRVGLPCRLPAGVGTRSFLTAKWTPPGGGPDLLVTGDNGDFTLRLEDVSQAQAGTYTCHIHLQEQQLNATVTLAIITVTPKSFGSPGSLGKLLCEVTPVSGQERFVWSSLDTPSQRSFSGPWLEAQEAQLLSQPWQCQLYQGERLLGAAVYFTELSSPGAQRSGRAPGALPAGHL
Experimental: The purified chimeric antibodies were characterized for binding affinity against human LAG3 using Bio-Layer Interferometry technology (Octet system). The association and dissociation curves were fit with 1:1 binding model, and the Ka/Kd/KD values for each antibody were calculated.

[2] = biological target: T1, human LAG3 (form used in Octet, Biacore …); test: BLI (Octet), 1:1 fit; remark: listed apart in the source
Experimental: (§1) The association and dissociation curves were fit with 1:1 binding model, and the Ka/Kd/KD values for each antibody were calculated.
as §1

[3] = biological target: T2, human LAG3, full length, stably expressed on cells (human, UniProt P18627 23-525); test: FACS on 293F cells stably expressing human LAG3
T2 construct: whole, on cells; also called CHOK1-human LAG3
T2 sequence (looked up): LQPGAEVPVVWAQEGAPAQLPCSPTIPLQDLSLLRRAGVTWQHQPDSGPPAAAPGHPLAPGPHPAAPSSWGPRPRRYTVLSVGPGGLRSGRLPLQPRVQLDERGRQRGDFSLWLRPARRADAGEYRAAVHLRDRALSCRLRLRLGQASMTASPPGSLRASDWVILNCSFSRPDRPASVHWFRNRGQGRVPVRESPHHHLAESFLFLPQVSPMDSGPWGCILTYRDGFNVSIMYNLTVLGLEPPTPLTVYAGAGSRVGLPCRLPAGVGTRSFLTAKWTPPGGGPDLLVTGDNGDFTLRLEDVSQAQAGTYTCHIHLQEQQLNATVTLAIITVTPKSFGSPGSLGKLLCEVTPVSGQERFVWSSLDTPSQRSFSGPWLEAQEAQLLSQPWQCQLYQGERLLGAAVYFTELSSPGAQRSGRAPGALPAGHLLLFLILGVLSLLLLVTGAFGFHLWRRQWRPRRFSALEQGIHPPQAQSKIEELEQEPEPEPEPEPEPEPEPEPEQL
Experimental: Briefly the antibodies were incubated with 2×10⁵ target cells at 4° C. for 1 hour. After washing, fluorescence labeled anti-mouse IgG 2nd antibody (Life Technologies) was added and incubated at 4° C. for 1 hour. Geometric median fluorescence intensity (MFI) was detected and EC₅₀ was calculated using GraphPad Prism9.0.
MFI was detected and EC₅₀ was calculated using GraphPad Prism9.0.

[4] = biological target: T3, mFc tagged human LAG3 ECD recombinant protein (human, UniProt P18627 23-450); test: competitive FACS: mFc-LAG3 ECD binding to Raji cells (MHC II)
T3 construct: extracellular domain; purchased from Biointron; not shown: mouse IgG Fc (mFc) tag
T3 sequence (looked up): T1 sequence (looked up)
Experimental: (§2) Activity of the purified chimeric antibodies to block LAG3 and MHC II interaction was determined by competitive FACS assay. […] After washing, dye labeled anti-mouse Fc 2nd antibody (Sigma) was added and incubated at 37° C. for 1 hour. Fluorescence intensity was detected.

[5] = biological target: T4, human LAG3 ECD recombinant protein (plate coated, tag not stated) (human, UniProt P18627 23-450); test: competitive ELISA format I: His-FGL1 binding to coated LAG3 ECD
T4 construct: extracellular domain
T4 sequence (looked up): T1 sequence (looked up)

[6] = biological target: T5, hFc tagged human LAG3 ECD recombinant protein (human, UniProt P18627 23-450); test: competitive ELISA format II: biotin hFc-LAG3 ECD binding to coated His-FGL1
T5 construct: range 23-450; also called biotin labelled hFc tagged human LAG3 ECD; not shown: human IgG Fc tag
T5 sequence (looked up): T1 sequence (looked up)
Experimental: After washing, HRP labeled anti-His 2nd antibody (Sigma) was added and incubated at 37° C. for 1 hour. Then, 100 μl/well of TMB solution (Biotechnology) was added. After incubation for 15 minutes at room temperature, the reaction was stopped by the addition of 50 μl of 1N HCl. OD 450 nm was read. […] After washing, HRP labeled anti-SA 2nd antibody (Sigma) was added and incubated at 37° C. for 1 hour. Then, 100 μl/well of TMB solution (Biotechnology) was added. After incubation for 15 minutes at room temperature, the reaction was stopped by the addition of 50 μl of 1N HCl. OD 450 nm was read. […] The competition assay of format III is a competitive FACS assay. […] After washing, dye labeled anti-His 2nd antibody (Sigma) was added and incubated at 37° C. for 1 hour. Fluorescence intensity was detected.

[7] = biological target: T3, mFc tagged human LAG3 ECD recombinant …; test: competitive FACS: mFc tagged human LAG3 ECD binding to MHC II on Raji cells
Experimental: as §2

[8] = biological target: T3, mFc tagged human LAG3 ECD recombinant …; test: as above; remark: listed apart in the source
Experimental: as §2

[9] = biological target: T3, mFc tagged human LAG3 ECD recombinant …; test: competitive ELISA: mFc tagged human LAG3 ECD binding to plate coated LSECtin ECD
Experimental: Activity of the purified chimeric antibodies to block LAG3 and LSECtin interaction was determined by competitive ELISA assay. […] After washing, HRP labeled anti-mouse Fc 2nd antibody (Sigma) was added and incubated at 37° C. for 1 hour. Then, 100 μl/well of TMB solution (Biotechnology) was added. After incubation for 15 minutes at room temperature, the reaction was stopped by the addition of 50 μl of 1N HCl. OD 450 nm was read.

[10] = biological target: T6, LAG3 D1 domain extra loop peptide (biotin labelled (site not stated)); test: ELISA format I: biotin labelled LAG3 D1 domain extra loop peptide on plate coated antibody; axis printed as Ab Conc. (nM)
T6 peptide: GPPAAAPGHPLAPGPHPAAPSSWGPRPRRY
Experimental: (§3) In ELISA binding assay of format I (FIG. 9A), biotin labelled LAG3 D1 domain extra loop peptide was incubated with ELISA microplate coated anti-LAG3 antibodies. After washing, HRP labeled anti-SA 2nd antibody (Sigma) was added and incubated at 37° C. for 1 hour. Then, 100 μl/well of TMB solution (Biotechnology) was added. After incubation for 15 minutes at room temperature, the reaction was stopped by the addition of 50 μl of 1N HCl. OD 450 nm was read. In ELISA binding assay of format II (FIG. 9B), biotin labelled LAG3 D1 domain extra loop peptide and anti-LAG3 antibodies were co-incubated in ELISA microplate coated with SA. After washing, HRP labeled anti-human Fc 2nd antibody (Sigma) was added and incubated at 37° C. for 1 hour. Then, 100 μl/well of TMB solution (Biotechnology) was added. After incubation for 15 minutes at room temperature, the reaction was stopped by the addition of 50 μl of 1N HCl. OD 450 nm was read.

[11] = biological target: T6, LAG3 D1 domain extra loop peptide; test: ELISA format II: biotin labelled LAG3 D1 domain extra loop peptide and antibody co-incubated on streptavidin coated plate, anti-human Fc detection
Experimental: as §3

- Kd [1]: 3.58 nM
- koff [1]: 0.00139 s⁻¹
- kon [1]: 389000 M⁻¹ s⁻¹
- Kd [2]: 7.7 nM
- koff [2]: 0.0268 s⁻¹
- kon [2]: 3.48e+06 M⁻¹ s⁻¹
- EC50 [3]: 1.6 nM
- TOP MFI [3]: 416
- IC50 [4]: 4.2 nM
- TOP blocking (%) [4]: 96.4%
- Blocking ratio at 66.7 nM (%) [5]: 62.6%
- IC50 [6]: 2 nM
- TOP blocking (%) [6]: 84.5%
- %Blocking at 2 nM [7]: 9.7%
- %Blocking at 4 nM [7]: 24.1%
- %Blocking at 8 nM [7]: 84.3%
- %Blocking at 4 nM [8]: 21.5%
- %Blocking at 8 nM [8]: 96.7%
- %Blocking at 4 nM [9]: 61.6%
- %Blocking at 20 nM [9]: 92.7%
- %Blocking at 100 nM [9]: 97%
- binding result [10]: no binding (tested: about 300 nM)
B1: 029c (antibody, human IgG4, V domains shown)
VH: DVKLVESGEDLVKPGGSLKLSCAASGFTFSSYAMSWVRQTPEKRLEWVAYVTSGGDYIYYADTVKGRFTISRDDVRNTLYLQMSSLKSEDTAMYYCTRVAYDYEWYFDVWGTGAPVTVSS
VL: DIVMTQSHKFMSTSVGDRVSITCKASQDVTTAVAWYQQKPGQSPKLLIYSASYRYTGVSDRFTGSGSGTDFTFTISSVQAEDLALYYCQQHDSSPWTFGGGTKLEIK
notes: human IgG4 S228P / kappa chimeric antibody; also called chimeric antibody 029; not shown: human kappa light chain constant region (pcDNA3.4-hIgGk vector)

- EC50 (read off the curve) [10]: ~0.08 nM
- EC50 (read off the curve) [11]: ~0.2 nM
B2: BMS-986016 (antibody, V domains shown)
VH: QVQLQQWGAGLLKPSETLSLTCAVYGGSFSDYYWNWIRQPPGKGLEWIGEINHRGSTNSNPSLKSRVTLSLDTSKNQFSLKLRSVTAADTAVYYCAFGYSDYEYNWFDPWGQGTLVTVSS
VL: EIVLTQSPATLSLSPGERATLSCRASQSISSYLAWYQQKPGQAPRLLIYDASNRATGIPARFSGSGSGTDFTLTISSLEPEDFAVYYCQQRSNWPLTFGQGTNLEIK
